From the supplement of paper PMC10567573

B1: HESX1 (parent)
chain: HVPNPPSGISFPSVVDHPMPEERA

Variants of: B1
Assay: protein stability index of a GFP-peptide fusion (GPS, HEK-293T) (PSI 1-6); higher = more stable
Settings: c terminus: a fixed tail appended
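Note: lentivirally expressed fusions sorted by FACS into six bins by GFP to DsRed ratio, PSI derived from sequencing read proportions per bin multiplied by bin number.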

**Q.** With HVPNPPSGISFPSVVDLPMPEERA as the variant, how does the protein stability index read?
**A.** 2.39

**Q.** Which protein stability index does the source give for HVPNPPSGISFPSVVDMPMPEERA here?
**A.** 2.52

**Q.** Which protein stability index does the source give for HVPNPPSGISFPSVVDHNMPEERA here?
**A.** 2.62

**Q.** Which protein stability index does the source give for HVPNPPSGISFPSVVDHIMPEERA here?
**A.** 2.36

**Q.** Which protein stability index does the source give for HVPNPPSGISFPSVVDHLMPEERA here?
**A.** 2.56

**Q.** With HVPNPPSGISFPSVVDHDMPEERA as the variant, how does the protein stability index read?
**A.** 2.78

**Q.** Which protein stability index does the source give for HVPNPPSGISFPSVVDHTMPEERA here?
**A.** 2.51

**Q.** For HVPNPPSGISFPSVVDHRMPEERA, which protein stability index is on record?
**A.** 2.79

**Q.** Which protein stability index does the source give for HVPNPPSGISFPSVVDHWMPEERA here?
**A.** 2.28

**Q.** With HVPNPPSGISFPSVVDHMMPEERA as the variant, how does the protein stability index read?
**A.** 2.49

**Q.** For HVVNPPSGISFPSVVDHPMPEERA, which protein stability index is on record?
**A.** 3.86

**Q.** For HVYNPPSGISFPSVVDHPMPEERA, which protein stability index is on record?
**A.** 3.54

**Q.** With HVCNPPSGISFPSVVDHPMPEERA as the variant, how does the protein stability index read?
**A.** 3.54

**Q.** Which protein stability index does the source give for HVLNPPSGISFPSVVDHPMPEERA here?
**A.** 3.88

**Q.** For HVMNPPSGISFPSVVDHPMPEERA, which protein stability index is on record?
**A.** 4.21

**Q.** Which protein stability index does the source give for HVPNPPSGISFPSVVDHPMNEERA here?
**A.** 3.28

**Q.** Which protein stability index does the source give for HVPNPPSGISFPSVVDHPMWEERA here?
**A.** 2.1

**Q.** With HVPNPPSGISFPSVVDHPMREERA as the variant, how does the protein stability index read?
**A.** 2.88

**Q.** Which protein stability index does the source give for HVPNPPSGISFPSVVDHPMKEERA here?
**A.** 2.54

**Q.** For HVPNPPSGISFPSVVDHPMMEERA, which protein stability index is on record?
**A.** 2.79

**Q.** With HVPNPPSGISFPSVVDHPMTEERA as the variant, how does the protein stability index read?
**A.** 2.91

**Q.** For HVPNPPSGISFPSVVDHPMCEERA, which protein stability index is on record?
**A.** 2.45

**Q.** Which protein stability index does the source give for HVPNPPSGISFPSVVDHPMFEERA here?
**A.** 2.21

**Q.** With HVPNPPSGISFPSVHDHPMPEERA as the variant, how does the protein stability index read?
**A.** 3.23

**Q.** With HVPNPPSGISFPSVNDHPMPEERA as the variant, how does the protein stability index read?
**A.** 3.22

**Q.** Which protein stability index does the source give for HVPNPPSGISFPSVFDHPMPEERA here?
**A.** 3.28

**Q.** Which protein stability index does the source give for HVPNPPSGISFPSVADHPMPEERA here?
**A.** 2.65

**Q.** For HVPNPPSGISFPSVQDHPMPEERA, which protein stability index is on record?
**A.** 3.63

**Q.** For HVPNPPSGISFPSVEDHPMPEERA, which protein stability index is on record?
**A.** 3.93

**Q.** For HVPNPPSGISFPSVTDHPMPEERA, which protein stability index is on record?
**A.** 3.13

**Q.** For HVPNPPSGISFPSVDDHPMPEERA, which protein stability index is on record?
**A.** 4.55

**Q.** For HVPNPPSGISFPSVLDHPMPEERA, which protein stability index is on record?
**A.** 3.61

**Q.** With HVPNPPSGISFASVVDHPMPEERA as the variant, how does the protein stability index read?
**A.** 3.44

**Q.** Which protein stability index does the source give for HVPNPPSGISFNSVVDHPMPEERA here?
**A.** 3.98

**Q.** For HVPNPPSGISFISVVDHPMPEERA, which protein stability index is on record?
**A.** 2.43

**Q.** Which protein stability index does the source give for HVPNPPSGISFFSVVDHPMPEERA here?
**A.** 1.75

**Q.** For HVPNPPSGISFVSVVDHPMPEERA, which protein stability index is on record?
**A.** 2.99

**Q.** For HVPNPPSGISFLSVVDHPMPEERA, which protein stability index is on record?
**A.** 2.79

**Q.** With HVPNPPSGISFRSVVDHPMPEERA as the variant, how does the protein stability index read?
**A.** 3.42

**Q.** Which protein stability index does the source give for HVPNPPSGISFPSYVDHPMPEERA here?
**A.** 3.21

**Q.** With HVPNPPSGISFPSWVDHPMPEERA as the variant, how does the protein stability index read?
**A.** 3.59

**Q.** With HVPNPPSGISFPSMVDHPMPEERA as the variant, how does the protein stability index read?
**A.** 3.1

**Q.** With HVPNPPSGISFPSNVDHPMPEERA as the variant, how does the protein stability index read?
**A.** 4.43

**Q.** With HVPNPPSGISFPSVVDHPMPEERL as the variant, how does the protein stability index read?
**A.** 2.32

**Q.** For HVPNPPSGISFPSVVDHPMPEERD, which protein stability index is on record?
**A.** 2.77

**Q.** With HVPNPPSGISFPSVVDHPMPEERK as the variant, how does the protein stability index read?
**A.** 2.63

**Q.** With HVPNPPSGISFPSVVDHPMPEERQ as the variant, how does the protein stability index read?
**A.** 2.38

**Q.** For HVPNPPSGISFPSVVDHPMPEERR, which protein stability index is on record?
**A.** 2.87

**Q.** With HVPNPPSGISFPSVVDHPMPEERT as the variant, how does the protein stability index read?
**A.** 2.87

**Q.** Which protein stability index does the source give for HVPNPPSGISFPSVVDHPMPEERE here?
**A.** 2.95

**Q.** Which protein stability index does the source give for HVPNPPWGISFPSVVDHPMPEERA here?
**A.** 1.71

**Q.** With HVPNPPCGISFPSVVDHPMPEERA as the variant, how does the protein stability index read?
**A.** 2.38

**Q.** Which protein stability index does the source give for HVPNPPMGISFPSVVDHPMPEERA here?
**A.** 2.74

**Q.** For HVPNPPRGISFPSVVDHPMPEERA, which protein stability index is on record?
**A.** 2.9

**Q.** For HVPNPPKGISFPSVVDHPMPEERA, which protein stability index is on record?
**A.** 2.93

**Q.** Which protein stability index does the source give for HVPNPPTGISFPSVVDHPMPEERA here?
**A.** 2.75

**Q.** Which protein stability index does the source give for HVPNPPNGISFPSVVDHPMPEERA here?
**A.** 2.99

**Q.** For RVPNPPSGISFPSVVDHPMPEERA, which protein stability index is on record?
**A.** 4.62

**Q.** With VVPNPPSGISFPSVVDHPMPEERA as the variant, how does the protein stability index read?
**A.** 5.32

**Q.** Which protein stability index does the source give for WVPNPPSGISFPSVVDHPMPEERA here?
**A.** 4.33

**Q.** For DVPNPPSGISFPSVVDHPMPEERA, which protein stability index is on record?
**A.** 5.46

**Q.** Which protein stability index does the source give for LVPNPPSGISFPSVVDHPMPEERA here?
**A.** 4.51

**Q.** Which protein stability index does the source give for GVPNPPSGISFPSVVDHPMPEERA here?
**A.** 5.41

**Q.** For FVPNPPSGISFPSVVDHPMPEERA, which protein stability index is on record?
**A.** 3.54

**Q.** For HVPNPPSGESFPSVVDHPMPEERA, which protein stability index is on record?
**A.** 3.58

**Q.** With HVPNPPSGYSFPSVVDHPMPEERA as the variant, how does the protein stability index read?
**A.** 2.43

**Q.** Which protein stability index does the source give for HVPNPPSGQSFPSVVDHPMPEERA here?
**A.** 3.62

**Q.** With HVPNPPSGISFPSVVDHPMPMERA as the variant, how does the protein stability index read?
**A.** 1.86

**Q.** With HVPNPPSGISFPSVVDHPMPCERA as the variant, how does the protein stability index read?
**A.** 2.71

**Q.** With HVPNPPSGISFPSVVDHPMPGERA as the variant, how does the protein stability index read?
**A.** 2.08

**Q.** Which protein stability index does the source give for HVPNPPSGISFPSVVDHPMPSERA here?
**A.** 2.56

**Q.** With HVPNPPSGISFPSVVDHPMPQERA as the variant, how does the protein stability index read?
**A.** 2.33

**Q.** With HVPNPPSGISFPSVVDHPMPLERA as the variant, how does the protein stability index read?
**A.** 1.97

**Q.** With HVPNPPSGISFPSVVDHPMPVERA as the variant, how does the protein stability index read?
**A.** 2.48

**Q.** For HVPNPPSGISFPSVVDHPMPHERA, which protein stability index is on record?
**A.** 2.45

**Q.** For HVPNPPSGISVPSVVDHPMPEERA, which protein stability index is on record?
**A.** 4.42

**Q.** Which protein stability index does the source give for HVPNPPSGISTPSVVDHPMPEERA here?
**A.** 4.8

**Q.** With HVPNPPSGISPPSVVDHPMPEERA as the variant, how does the protein stability index read?
**A.** 5.21

**Q.** For HVPNPPSGISAPSVVDHPMPEERA, which protein stability index is on record?
**A.** 5

**Q.** For HVPNPPSGISWPSVVDHPMPEERA, which protein stability index is on record?
**A.** 2.54

**Q.** With HVPNPPSGISSPSVVDHPMPEERA as the variant, how does the protein stability index read?
**A.** 4.86

**Q.** Which protein stability index does the source give for HVPNPPSGISIPSVVDHPMPEERA here?
**A.** 4.39

**Q.** With HVPNPPSGISEPSVVDHPMPEERA as the variant, how does the protein stability index read?
**A.** 5.4

**Q.** With HVPNPPSGISFPSVVCHPMPEERA as the variant, how does the protein stability index read?
**A.** 2.4

**Q.** Which protein stability index does the source give for HVPNPPSGISFPSVVRHPMPEERA here?
**A.** 2.51

**Q.** Which protein stability index does the source give for HVPNPPSGISFPSVVLHPMPEERA here?
**A.** 2.36

**Q.** Which protein stability index does the source give for HVPNPPSGISFPSVVTHPMPEERA here?
**A.** 2.03

**Q.** With HVPNPPSGISFPSVVSHPMPEERA as the variant, how does the protein stability index read?
**A.** 2.22

**Q.** Which protein stability index does the source give for HVPNPPSGISFPSVVPHPMPEERA here?
**A.** 2.37

**Q.** With HVPNPPSGICFPSVVDHPMPEERA as the variant, how does the protein stability index read?
**A.** 2.19

**Q.** With HVPNPPSGIEFPSVVDHPMPEERA as the variant, how does the protein stability index read?
**A.** 3.39

**Q.** For HVPNPPSGIQFPSVVDHPMPEERA, which protein stability index is on record?
**A.** 2.42

**Q.** For HVPNPPSGIIFPSVVDHPMPEERA, which protein stability index is on record?
**A.** 2.59

**Q.** With HVPNPPSGITFPSVVDHPMPEERA as the variant, how does the protein stability index read?
**A.** 2.97
